Target: T1, B7 S177A (mouse, UniProt Q00609 38-306, S177A)
T1 sequence (looked up): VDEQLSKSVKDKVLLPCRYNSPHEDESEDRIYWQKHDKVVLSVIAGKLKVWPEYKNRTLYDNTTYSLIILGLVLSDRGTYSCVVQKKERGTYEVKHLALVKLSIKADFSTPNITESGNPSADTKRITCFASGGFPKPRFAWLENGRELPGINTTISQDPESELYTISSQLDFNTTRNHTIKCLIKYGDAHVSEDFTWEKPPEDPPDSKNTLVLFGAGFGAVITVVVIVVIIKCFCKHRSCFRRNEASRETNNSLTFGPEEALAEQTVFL
Experiment: flow cytometry on cells

- % wild-type B7 binding (normalised to anti-B7 mAb 10.16A.1): 63%
- MF (mean fluorescence, control subtracted): 40 MF
B1: CD28Ig (Fc fusion, mouse, UniProt P31041 20-150, looked up)
chain: NKILVKQSPLLVVDSNEVSLSCRYSYNLLAKEFRASLYKGVNSDVEVCVGNGNFTYQPQFRSNAEFNCDGDFDNETVTFRLWNLHVNHTDIYFCKIEFMYPPPYLDNERSNGTIIHIKEKHLCHTQSSPKL
